In assay [1] the target is T1, 带有His6标签的EGFR胞外区蛋白 (EGFR extracellular domain with His6 tag) (UniProt P00533 25-645, limits assumed).
T1 construct: extracellular domain; also called EGFR保外区蛋白; 抗原; not shown: His6 tag
Put plainly: SPR, BIACORE X100 PLUS; ratio of KD against the reference mR3. A general note: SPR reads the build-up and loss of mass on a sensor chip optically.

For assay [2], the target named is T1, 带有His6标签的EGFR胞外区蛋白 (EGFR extracellular …). The assay is described as follows: monoclonal scFv-phage ELISA on coated antigen at 1 μg/ml, Anti-M13 HRP, OD450.

We go through two molecules from patent CN111875704A (BAI XIANHONG, dated 2020).

B1: 24H7 全长抗体 (full-length anti-EGFR antibody, IgG1/kappa) (antibody, V domains shown)
VH: QVQLQQPGAELVKPGASVKLSCKASGYTFTNYYIYWFKQRPGQGLEWIGGINPTSGGSNFNEKFKTKATLTVDESSTTAYMQLSSLTSEDSAVYYCTRQGLWFDSDGRGFDFWGQGTTLTVSS
VL: DVLMTQIPLSLPVSLGDQASISCRSSQNIVHSNGNTYLDWYLQKPGQSPNLLIYKVSNRFSGVPDRFRGSGSGTDFTLKISRVEAEDLGVYYCFQYSHVPWTFGGGTKLEIKR
notes: also called 全长24H7抗体
Consider B1, for which the “fold improvement of affinity against mR3” value in assay [1] was 10 倍.

B2: 24H7 scFv (单克隆scFv噬菌体抗体) (scFv)
scFv: QVQLQQPGAELVKPGASVKLSCKASGYTFTNYYIYWFKQRPGQGLEWIGGINPTSGGSNFNEKFKTKATLTVDESSTTAYMQLSSLTSEDSAVYYCTRQGLWFDSDGRGFDFWGQGTTLTVSSGGGGSGGGGSGGGGSDVLMTQIPLSLPVSLGDQASISCRSSQNIVHSNGNTYLDWYLQKPGQSPNLLIYKVSNRFSGVPDRFRGSGSGTDFTLKISRVEAEDLGVYYCFQYSHVPWTFGGGTKLEIKRGQAGQHHHHHH
notes: The phage coat protein fusion is not described
Take B2: the binding result in assay [2] is “binds”.
